From paper PMC10942449 (bioRxiv, 2024) come the findings set out here.

As a reminder, the stoichiometry N is the number of molecules, sites or subunits per partner or assembly.

In assay [1] the target is DS-Cav1-His6 (respiratory syncytial virus subtype A, strain A2 | not stated) (UniProt P03420). In words: SEC. For orientation: Size exclusion chromatography separates by hydrodynamic size, large species first.
Assay [2] has the same target. The assay is described as follows: cross-linking.
For assay [3], the target named is sc9–10 DS-Cav1 (respiratory syncytial virus subtype A, strain A2 | not stated) (UniProt P03420). The assay is described as follows: SEC.
In assay [4] the target is DS-Cav1 (respiratory syncytial virus subtype A, strain A2 | not stated) (UniProt P03420). The assay is described as follows: SEC.
Assay [5] concerns the target sc9–10 DS-Cav1-His6 (respiratory syncytial virus subtype A, strain A2 | not stated) (UniProt P03420). In words: SEC.
Assay [6] has the same target. In words: cross-linking.
The target of another assay is UFCM1 (human metapneumovirus, …, UniProt Q1A2Z0, E80D | T127C | N153C | A185P). The assay is described as follows: ELISA. On the technique in general: ELISA stands for enzyme-linked immunosorbent assay.
For a further assay, the target named is UFCM1-P2 (human metapneumovirus, …, UniProt Q1A2Z0, E80D | T127C | N153C | A185P | V155P). In words: ELISA.

With “DS-Cav1-His6 (from UniProt P03420 26-513) (domain or fragment)”, the stoichiometry N in assay [1] and in assay [2] was 3 each time.

“sc9–10 DS-Cav1 (from UniProt P03420 26-513) (domain or fragment)” returned a stoichiometry N in assay [3] of 3.

For “DS-Cav1 (from UniProt P03420 26-513) (domain or fragment)”, the stoichiometry N in assay [4] came out at 3.

For “sc9–10 DS-Cav1-His6 (from UniProt P03420 26-513) (domain or fragment)”, the stoichiometry N in assay [5] and in assay [6] was 3 each time.

B1: MPE8 IgG (antibody, V domains shown)
VH: EVQLVESGGGLVKPGGSLRLSCAASGFTFSSYSMNWVRQAPGKGLEWVSSISASSSYSDYADSAKGRFTISRDNAKTSLFLQMNSLRAEDTAIYFCARARATGYSSITPYFDIWGQGTLVTVSS
VL: QSVVTQTPSVSGAPGQRVTISCTGSSSNIGAGYDVHWYQQLPGTAPKLLIYDNNNRPSGVPDRFSASKSGTSASLAITGLQAEDEADYYCQSYDRNLSGVFGTGTKVTVL
As to B1, the binding result in the assay with UFCM1 and with UFCM1-P2 was “binds” each time.
